Data taken from patent publication US20230295310A1 (ABCELLERA BIOLOGICS, published 2023).

Tests used:
[1] = biological target: T1, cynomolgus monkey CD3 expressed on cyno primary T cells (cynomolgus monkey, UniProt Q95LI5 22-198; Q95LI8 22-171; Q95LI7 23-181); test: flow cytometry, cyno primary T cells
T1 construct: whole, on cells; CD3 complex on purified cynomolgus monkey CD3 pan T cells; also called cyno CD3
Procedure, shortened: (§1)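 Flow cytometric binding was measured after cells were incubated with antibody (25 nM, PBS+2% FBS) at 4° C for 30 minutes. Signals were normalized to isotype to yield FOI, with ≥10 scored positive.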

[2] = biological target: T2, human CD3 expressed on cells (Jurkat cells; human primary T cells) (human, UniProt P07766 23-207; P04234 22-171; P09693 23-182); test: flow cytometry, Jurkat cells
T2 construct: whole, on cells
Protocol: Purified antibodies were confirmed to bind CD3 expressed on cells using the CytoFLEX S or LX flow cytometers (Beckman Coulter). Antibodies were diluted to 25 nM in FACS buffer (PBS+2% FBS) and were incubated with CD3-expressing cells for 30 minutes at 4° C. […] The median fluorescence intensity of the binding signal for each antibody was normalized to the isotype control to obtain a fold over isotype value. An antibody with a fold over isotype (FOI) of ≥10 was considered to be positive for binding.

[3] = biological target: T3, human CD3 expressed on cells (human, UniProt P07766 23-207; P04234 22-171; P09693 23-182); test: flow cytometry, 25 nM, Jurkat cells (human primary T cells in c4 also <10)
T3 construct: whole, on cells; CD3 complex on Jurkat cells and on human primary T cells
Procedure, shortened: as §1

[4] = biological target: T3, human CD3 expressed on cells; test: flow cytometry, 25 nM
Procedure, shortened: as §1

[5] = biological target: T4, cynomolgus monkey CD3 expressed on primary T cells (cynomolgus monkey, UniProt Q95LI5 22-198; Q95LI8 22-171; Q95LI7 23-181); test: flow cytometry, 25 nM, cyno primary T cells
T4 construct: whole, on cells; CD3 complex on purified cynomolgus monkey T cells; also called cyno CD3
Procedure, shortened: as §1

T4 sequence (Q95LI5 22-198, chain 1 of 3): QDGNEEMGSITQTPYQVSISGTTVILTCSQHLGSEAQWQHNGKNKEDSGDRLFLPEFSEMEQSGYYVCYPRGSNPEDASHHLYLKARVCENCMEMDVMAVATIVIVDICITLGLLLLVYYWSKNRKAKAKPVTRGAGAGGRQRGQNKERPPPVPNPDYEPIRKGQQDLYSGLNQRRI
T4 sequence (Q95LI8 22-171, chain 2 of 3): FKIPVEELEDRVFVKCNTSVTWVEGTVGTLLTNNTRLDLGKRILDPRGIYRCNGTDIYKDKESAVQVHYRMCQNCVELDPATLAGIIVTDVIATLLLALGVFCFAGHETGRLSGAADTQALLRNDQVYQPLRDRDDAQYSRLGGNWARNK
T4 sequence (Q95LI7 23-181, chain 3 of 3): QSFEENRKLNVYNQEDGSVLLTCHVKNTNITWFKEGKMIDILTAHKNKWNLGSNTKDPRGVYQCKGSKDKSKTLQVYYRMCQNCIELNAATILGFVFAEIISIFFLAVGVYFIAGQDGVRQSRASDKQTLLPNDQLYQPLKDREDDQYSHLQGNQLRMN
T1 sequence (Q95LI5 22-198, chain 1 of 3): as the sequence (Q95LI5 22-198, chain 1 of 3) above
T1 sequence (Q95LI8 22-171, chain 2 of 3): as the sequence (Q95LI8 22-171, chain 2 of 3) above
T1 sequence (Q95LI7 23-181, chain 3 of 3): as the sequence (Q95LI7 23-181, chain 3 of 3) above
T2 sequence (P07766 23-207, chain 1 of 3): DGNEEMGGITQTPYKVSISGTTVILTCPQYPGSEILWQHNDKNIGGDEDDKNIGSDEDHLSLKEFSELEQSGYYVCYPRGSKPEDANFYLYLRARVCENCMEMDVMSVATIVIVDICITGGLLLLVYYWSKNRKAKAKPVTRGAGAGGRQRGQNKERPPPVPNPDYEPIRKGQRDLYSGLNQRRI
T2 sequence (P04234 22-171, chain 2 of 3): as the sequence (Q95LI8 22-171, chain 2 of 3) above, with V5I, K15N, V20I, T32S, N33D, N34I, A64T, N74S, L83V, R141H counted along it
T2 sequence (P09693 23-182, chain 3 of 3): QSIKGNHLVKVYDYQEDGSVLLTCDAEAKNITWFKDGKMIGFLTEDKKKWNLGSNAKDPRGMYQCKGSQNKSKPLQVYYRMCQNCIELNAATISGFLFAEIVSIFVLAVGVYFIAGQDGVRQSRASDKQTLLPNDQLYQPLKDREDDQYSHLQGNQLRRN
T3 sequence (P07766 23-207, chain 1 of 3): as the sequence (P07766 23-207, chain 1 of 3) above
T3 sequence (P04234 22-171, chain 2 of 3): as the sequence (Q95LI8 22-171, chain 2 of 3) above, with V5I, K15N, V20I, T32S, N33D, N34I, A64T, N74S, L83V, R141H counted along it
T3 sequence (P09693 23-182, chain 3 of 3): as the sequence (P09693 23-182, chain 3 of 3) above

binding result [3] | Human primary T Cell Binding (FOI) [4] | binding result [5] | Binder | binding result [1] | binding result [2]
 |  |  | mAb 182 (antibody, V domains shown, VH/VL only) VH: QVQLVQSGAGMKKPGASVRVSCKASGYNFIDYHIHWVRQAPGQGLEWMGWINPKSGRTMSAQKFQGRVTMTRDTSITAAYMELNRLRSDDSAIYYCARVTQLVFDHWGQGTLVTVSL VL: not shown | no binding (tested: FOI <10 (FOI >=10 = positive); 25 nM) | no binding (tested: FOI <10 (FOI >=10 = positive); 25 nM)
 |  |  | mAb 183 (antibody, V domains shown, VH/VL only) VH: QVQLVQSGAEVKKPGASVRVSCKSSGYTFTGYYIHWVRQAPGQGLEWMGWINPKSGRTSYAEKFQGSITMTRDTSINTAYMELTKLRSDDTAVYYCERMGELLLFDYWGQGTLVTVSS VL: not shown | no binding (tested: FOI <10 (FOI >=10 = positive); 25 nM) | no binding (tested: FOI <10 (FOI >=10 = positive); 25 nM)
 |  |  | mAb 278 (antibody, V domains shown) VH: QVQLVQSGAAMKKPGASVKVSCKASGSTFTGYYLHWVRQAPGQGLEWMGWIYLNSGRTKYAQKFQGRVTMTRDTSISTAHMELSRLTFDDTAVYYCARVLELIFDYWGQGTLVTVSS VL: not shown | no binding (tested: FOI <10 (FOI >=10 = positive); 25 nM) | no binding (tested: FOI <10 (FOI >=10 = positive); 25 nM)
 |  |  | mAb 181 (antibody, V domains shown, VH/VL only) VH: QVQLVQSGADMKKPGASVKVSCKASGYTFTDYHIHWVRQAPGQGLEWMGWINPKSGRTMFAQNFQDRVTMTRDTSISTAYMELNRLRSDDSAVYYCARVTQLVFDHWGQGTLVTVSF VL: AIQMTQSPSSLSASVGDRVTITCRASQGIRNDLGWYQQKPGKAPKLLIYAASSLQSGVPSRFSGSGSGTDFTLTISSLQPEDFATYYCLQDYNYMYTFGQGTKLEIK | no binding (tested: FOI <10 (FOI >=10 = positive); 25 nM) | no binding (tested: FOI <10 (FOI >=10 = positive); 25 nM)
 |  |  | mAb 187 (antibody, V domains shown, VH/VL only) VH: EVQLLESGGGLVQPGGSLRLSCAASGFTFSSYAMNWVRQAPGKGLEWVSAISSSGGRTYYADSVKGRFTISRDNSKNTLYLQMNSLRAEDTAVYYCAKDSTSHPYMDVWGKGTTVTVSS VL: AIQMTQSPSSLSASVGDRVTITCRASQGIRNDLGWYQQQPGKAPKLLIYDASSLQSGVPSRFSGSGSGTVFTLTISSLQPEDFATYFCLQDYNYPFTFGPGTKVDIK | no binding (tested: FOI <10 (FOI >=10 = positive); 25 nM) | no binding (tested: FOI <10 (FOI >=10 = positive); 25 nM)
 |  |  | mAb 274 (antibody, V domains shown, VH/VL only) VH: QVQLVQSGAEVKKPGASVRVSCKASGYTFTGYYMHWVRQAPGQGLEWMGWIYPNSGRTNYAQKFQGRVTMTRDTSISTAYMELTRLISDDTAVYYCARLWDLYFDYWGQGTLVTVSS VL: DIQLTQSPSFLSASVGDRVTITCRASQGISSYLAWYQQKPGKAPKLLIYAASTLQSGVPSRFSGSGSGTEFTLTISSLQPEDFATYYCQQLNSYPWTFGQGTKVEIK | no binding (tested: FOI <10 (FOI >=10 = positive); 25 nM) | no binding (tested: FOI <10 (FOI >=10 = positive); 25 nM)
 |  |  | mAb 277 (antibody, V domains shown, VH/VL only) VH: QVQLVQSGAAMKKPGASVKVSCKASGSTFTGYYLHWVRQAPGQGLEWMGWIYLNSGRTKYAQKFQGRVTMTRDTSINTAHMELSRLTFDDTAVYYCVRVLELIFDYWGQGTLVTVSS VL: DIQLTQSPSFLSASVGDRVTITCRASQGISSYLAWYQQKPGKAPKLLIYAASTLQSGVPSRFSGSGSGTEFTLTISSLQPEDFATYYCQQLNSYPWTFGQGTKVEIK | no binding (tested: FOI <10 (FOI >=10 = positive); 25 nM) | no binding (tested: FOI <10 (FOI >=10 = positive); 25 nM)
no binding (tested: FOI >=10 = positive) | 1.45 FOI | no binding (tested: FOI >=10 = positive) | mAb 149 (antibody, V domains shown) VH: QVQLVQSGAEVKKPGASVKVSCKASGYTFTAYHTHWVRQAPGQGLEWMGWIYPKSGRTTYTQKFQGRVTMTRDTSISTVYMELSRLKSDDTAVYYCARVGALLFDYWGQGTLVTVSS VL: not shown |  | 
no binding (tested: FOI >=10 = positive) | 1.36 FOI | no binding (tested: FOI >=10 = positive) | mAb 151 (antibody, V domains shown) VH: QVQLVQSGAEVKKPGASVKVSCKASGYTFTAYHTHWVRQAPGQGLEWMGWIYPKSGRTTYTQKFQGRVTMTRDTSISTVYMELSRLKSDDTAVYYCARVGALLFDYWGQGTLVTVSS VL: DIQMTQSPSSLSASVGDRVTITCRASQGIRNDLGWYQQKPGKAPKCLIYAASNLQSGVPSRFSGSGSGTEFTLTISSLQPEDFATYYCLQHNSYPRTFGQGTKVDVK |  | 
 |  |  | mAb 185 (antibody, V domains shown, VH/VL only) VH: QVQLVQSGSEVKKPGASVRVSCKASGYIFTGYHIHWVRQAPGQGLEWMGWINPKSGRTSYAQNFQARVTMTRDTSINTIHMELSRLRSDDTAIYYCMRVGEQLLFDFWGQGTLVTVSS VL: not shown | no binding (tested: FOI <10 (FOI >=10 = positive); 25 nM) | no binding (tested: FOI <10 (FOI >=10 = positive); 25 nM)
 |  |  | mAb 275 (antibody, V domains shown, VH/VL only) VH: QVQLVQSGSELKKPGASVKVSCKASGYTFTKYAMNWVRQAPGQGLEWMGWINTNTGNPTYAQGFTGRFVFSLDASVTTAYLQISSLKAEDTAVYYCAREGHYDFWGGFYYFDYWGQGTLVTVSS VL: EIMLTQSPATLSLSPGERGTLSCRASQSVSSYLAWYQQKPGQAPRLVIYDVSNRATGIPARFSGSGSGTDFILTIGSLEPEDFAVYYCQQRSNWPLTFGGGTKVEIK | no binding (tested: FOI <10 (FOI >=10 = positive); 25 nM) | no binding (tested: FOI <10 (FOI >=10 = positive); 25 nM)
 |  |  | mAb 184 (antibody, V domains shown, VH/VL only) VH: QVQLVESGGGVVQPGRSLRLSCAASGFTFSDYGMHWVRQAPGKGLEWVSVIWSDGLNKYYKDSVKGRFTISRDNSKNTLYLQMNSLRAADTAVYYCARLYSGSHYHYFMDVWGKGTSVTVSS VL: DILLTQSPSFLSASVGDRVTITCRASQDISSSLAWYQQKPKKAPDLLIYTASTLQSGVPSRFSGRGSGTEFTLTISNLQPEDFATYYCQQLKNYPITFGQGTRLEIK | no binding (tested: FOI <10 (FOI >=10 = positive); 25 nM) | no binding (tested: FOI <10 (FOI >=10 = positive); 25 nM)
 |  |  | mAb 268 (antibody, V domains shown, VH/VL only) VH: QVQLVQSGSEVKKPGASVKVSCKASGYTFTGYYIHWVRQAPGQGLEWMGWINPNSGRTNYAQNFQGRVTMTRDTSITTAHMELTRLTSDDTAVYYCARLELLVFDYWGQGTLVTVSS VL: DIQMTQSPSSLSASVGDRVTITCRASQTIYNYLNWYQQKPGKAPQVLIYAASNLQSGVPSIFSGSGSGTDFTLTITNLQPEDFATYYCQQTYSIPFTFGGGTKVEIK | no binding (tested: FOI <10 (FOI >=10 = positive); 25 nM) | no binding (tested: FOI <10 (FOI >=10 = positive); 25 nM)
 |  |  | mAb 279 (antibody, V domains shown, VH/VL only) VH: QVQLVQSGAEVKKPGASVKVSCKASGYTFTGYYMHWVRQAPGQGLEWMGWIYPNSGRTNYAQKFQGRVTMTRDTSISTAYMELTRLISDDTAVYYCARLWDLYFDYWGQGTLVTVSS VL: not shown | no binding (tested: FOI <10 (FOI >=10 = positive); 25 nM) | no binding (tested: FOI <10 (FOI >=10 = positive); 25 nM)
 |  |  | mAb 269 (antibody, V domains shown, VH/VL only) VH: QVQLVQSGSEVKKPGASVKVSCKASGYTFTGYYIHWVRQAPGQGLEWMGWINPNSGRTNYAQNFQGRVTMTRDTSITTAHMELTRLTSDDTAVYYCARLELLVFDYWGQGTLVTVSS VL: not shown | no binding (tested: FOI <10 (FOI >=10 = positive); 25 nM) | no binding (tested: FOI <10 (FOI >=10 = positive); 25 nM)
no binding (tested: FOI >=10 = positive) | 1.48 FOI | no binding (tested: FOI >=10 = positive) | mAb 168 (antibody, V domains shown) VH: EVQLVQSGAEVKKPGESLKISCKGSGYIFTSYWIGWVRQMPGKGLEWMGIIYPGDSDTRYSPSFQGQVTISADKSISTAYLQWSSLKASDTAMYYCARRNYYYYMDVWGKGTTVTVSS VL: not shown |  | 
 |  |  | mAb 253 (antibody, V domains shown, VH/VL only) VH: QVTLKESGPVLVKPTETLTLTCTVSGFSLSNARMGVSWIRQPPGKALEWLTLIFSIDEKSYSTSLKSRLTISQDTSKSQVVLTVTNMDPVDTVTYFCERIETGPYYYYYYMDVWGKGTTVTVSS VL: not shown | no binding (tested: FOI <10 (FOI >=10 = positive); 25 nM) | no binding (tested: FOI <10 (FOI >=10 = positive); 25 nM)
 |  |  | mAb 254 (antibody, V domains shown, VH/VL only) VH: QVTLKESGPVLVKPTETLTLTCTVSGFSLSNSRMGVSWLRQPPGKALEWLIFIFSIDEKSYSTSLKSRLTISQDTSKSQVVLTMTNMDPVDTVTYFCERIETGPYYYYYYMDVWGKGTTVTVSS VL: not shown | no binding (tested: FOI <10 (FOI >=10 = positive); 25 nM) | no binding (tested: FOI <10 (FOI >=10 = positive); 25 nM)
